The source of these data is patent US6797695.

This experiment concerns the target T1, Recombinant FGF-20 (rat, UniProt Q9EST9 1-212).
T1 construct: Immobilised on a CM5 sensor chip in the assay; also called recombinant rat FGF-20; rFGF-20
Briefly: SPR (BIACORE 2000), FGF-20 immobilised on CM5, receptor extracellular domain as analyte. (Surface plasmon resonance follows binding to a sensor surface in real time, without labels.)

T1 sequence (Q9EST9 other isoform, or with tags, fused parts or gaps limits assumed): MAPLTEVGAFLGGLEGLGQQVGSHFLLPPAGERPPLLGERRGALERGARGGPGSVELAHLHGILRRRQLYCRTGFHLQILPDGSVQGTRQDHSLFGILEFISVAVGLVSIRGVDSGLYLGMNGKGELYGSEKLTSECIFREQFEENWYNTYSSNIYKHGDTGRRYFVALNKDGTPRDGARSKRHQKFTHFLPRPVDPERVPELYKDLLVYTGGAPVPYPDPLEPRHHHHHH

B1: recombinant extracellular domain of FGFR-3c (receptor)
chain: ESLGTEQRVVGRAAEVPGPEPGQQEQLVFGSGDAVELSCPPPGGGPMGPTVWVKDGTGLVPSERVLVGPQRLQVLNASHEDSGAYSCRQRLTQRVLCHFSVRVTDAPSSGDDEDGEDEAEDTGVDTGAPYWTRPERMDKKLLAVPAANTVRFRCPAAGNPTPSISWLKNGREFRGEHRIGGIKLRHQQWSLVMESVVPSDRGNYTCVVENKFGSIRQTYTLDVLERSPHRPILQAGLPANQTAVLGSDVEFHCKVYSDAQPHIQWLKHVEVNGSKVGPDGTPYVTVLKTAGANTTDKELEVLSLHNVTFEDAGEYTCLAGNSIGFSHHSAWLVVLPAEEELVEADEAGSVYAG
As for B1, the Kd (commonly a measure of binding affinity in units of concentration) is 217 nM; the koff (in general, a measure of how fast the partners let go of each other) came to 0.0247 s⁻¹; the kon (as a rule, the second-order rate constant of association) came to 115000 M⁻¹ s⁻¹.
